Sequences and labels used below:
B5: PP6373 (antibody, human IgG1, kappa, V domains shown)
VH: EVKFEESGGGLVQPGGSIKLSCAASGVTFSEAWMDWVRQSPEKGLEWVAEIRDKPNSYVTYYAESVKGRFTISRDDSKSRVYLQMNNLRTEDTGIYYCTGAMDYWGQGTSVTVSS
VL: DIVMTQTPLSLSVTIGQPASISCKSSQSLLYSNGKTYLNWLQQRPGQSPKRLIYQVSKLDPGIPDRFSGSGSETDFTLKISRVEAEDLGIYYCMQGSSLPWTFGGGTKLEIKR
notes: Biotinylated in tissue and cell staining; also called H4069 + L4071; P3050.ComF1.2H1

The target of assay [1] is B5. Description: peptide inhibition ELISA, PP6373 on SA-N-CD24, peptides titrated. In general terms: An ELISA detects its analyte on a solid surface through an enzyme-linked reagent.
The target in another assay is T1, 3B6.
T1 construct: Monoclonal antibody; also called anti-CD24 monoclonal antibody 3B6
Description: peptide inhibition ELISA, 3B6 on NO-CD24. On the procedure:
(§1) To determine the antigenic epitope recognized by 3B6 and affinity matured clone PP6373, we synthesized overlapping peptides covering the mature CD24 amino acid sequence (Seq ID No 42), and pre-incubated them with 3B6 antibody prior to adding 3B6 to plates pre-coated with NO-CD24 protein (CD24Fc pretreated sequentially with N-glycosidase, NanA and O-glycosidase).

Assay [2] deals with B5. Description: inhibition assay with truncated peptides.
The target in assay [3] is T2, fully glycosylated CD24 (recombinant, from CHO cells) (N-glycans, sialic acid and O-glycans kept (untreated)).
T2 construct: Recombinant CD24 made in CHO cells, untreated; also called fully modified (N-glycan+sialic acid+O-glycan modifications) CD24; CD24 without deglycosylation
T2 chain: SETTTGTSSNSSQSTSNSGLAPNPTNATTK
Description: ELISA titration on coated Fc removed CD24, untreated. On the procedure: FIG. 8. Quantitative comparison of binding between different CD24 glycoforms and anti-CD24 antibodies: parental PP6229 vs affinity matured PP6373. Fc removed CD24 were coated onto ELISA plate, and were then treated with either buffer (CD24), NanA (SA-) or NanA+N-glycanse (SA-N-) prior adding given doses of […] (left panel) or PP6373 (right panel). The maximum concentration tested was 7812.50 ng/ml with titration factor of 5× to a minimum concentration of 0.02 ng/ml.
Therefore, this clone is chosen for further study. The heavy chain sequence for PP6373 is listed in SEQ ID NO: 6 and the light chain sequence is listed on SEQ ID No.16. Compared with the parental sequence, the heavy chain has three mutations in CDR2, while the light chain has one mutation in CDR3 of the light chain. […] It is also of note that PP6373 gained the ability to bind to CD24 even without deglycosylation at 1/1000 level of that to SA-N-CD24. However, since CHO cells is known to have incomplete glycosylation, it is likely that the binding reflect the higher sensitivity of the antibody to detect minor glycoform in the recombinant CD24 prepared from CHO cells.

In assay [4] the target is B5. Description: peptide inhibition ELISA, peptides titrated over a large dose range. On the procedure:
as §1

B1: SEQ ID NO 45 (peptide)
peptide: SSQSTSNSGL
notes: Synthetic overlapping peptide of mature CD24; by order probably peptide 3; also called one of the five overlapping CD24 peptides
Regarding B1, the binding result in the assay with PP6373 [1] and in the assay with 3B6 was “no binding” throughout.

B2: SEQ ID NO 43 (peptide)
peptide: SETTTGTSSN
notes: Synthetic overlapping peptide of mature CD24; by order probably peptide 1; also called one of the five overlapping CD24 peptides
B2: the binding result with PP6373 [1] and with 3B6 was “no binding” each time.

B3: SEQ ID NO 44 (peptide)
peptide: GTSSNSSQST
notes: Synthetic overlapping peptide of mature CD24; by order probably peptide 2; also called one of the five overlapping CD24 peptides
For B3, the binding result with PP6373 [1] and with 3B6 was “no binding” each time.

B4: SNSGLAPN (SEQ ID NO: 48) (peptide)
peptide: SNSGLAPN
notes: C-terminally truncated form of peptide 4; also called truncated peptide 4
As to B4, the binding result in the assay with PP6373 [2] was “binds”.

Regarding B5, in assay [3], the “binding relative to that to SA-N-CD24” value turned out to be 0.001 ratio.

B6: peptide 4 (peptide)
peptide: SNSGLAPNPT
notes: Synthetic overlapping peptide of mature CD24
With B6, the binding result with PP6373 [4] is “binds”.

B7: SEQ ID NO 47 (peptide)
peptide: APNPTNATTK
notes: Synthetic overlapping peptide of mature CD24; by order probably peptide 5; also called one of the five overlapping CD24 peptides
In the case of B7, the binding result with PP6373 [1] and in the assay with 3B6 was “no binding” throughout.

These data come from patent US20250243292A1 (published 2025).
